Assay results from patent US20210261937.
Substitutions are numbered along the chain they refer to.

B1: hsSENP2 (protein)
chain: EFPEITEEMEKEIKNVFRNGNQDEVLSEAFRLTITRKDIQTLNHLNWLNDEIINFYMNMLMERSKEKGLPSVHAFNTFFFTKLKTAGYQAVKRWTKKVDVFSVDILLVPIHLGVHWCLAVVDFRKKNITYYDSMGGINNEACRILLQYLKQESIDKKRKEFDTNGWQLFSKKSQEIPQQMNGSDCGMFACKYADCITKDRPINFTQQHMPYFRKRMVWEILHRKLL
B2: bdSENP1^MutH (protein)
chain: PFVPLTDEDEDNVRHALGGRKPSETLSVHEASAIVITREILQCLNDKEWLNDEVINLYLELLKERELREPNKFLKCHFFNTFFYKKLINGYDYKSVREWTTMRKLGYNLIDCDKIFVPIHKDVHWCLAVINIKEKKFQYLDSLGYMDMKALRILAKYLVDEVKDKSGKQIDVHAWKQEGVQNLPLQENGWDCGMFMLKYIDFYSRDMELVFGQKHMSYFRRRTAKEILDLKAG
B3: bdSENP1^MutJ (protein)
chain: PFVPLTDEDEDNVRHALGGRKESETLSVHEASSIVITREILQCLNDKEWLNDEVINLYLELLKERELREPNKFLKCHFFNTFFYKKLINGGYDYKSVRSWTTTRKLGYNLIDCDKIFVPIHKDVHWCLAVINIKEKKFQYLDSLGYMDMKALRILAKYLVDEVKDKSGKQIDVHAWKQEGVQNLPLQENGWDCGMFMLKYIDFYSRDMELVFGQKHMSYFRRRTAKEILDLKAG
B4: bdSENP1 from B. distachyon (protein)
chain: B3 chain with E22R, S33N, S99R, T103K
B5: bdSENP1^MutK (protein)
chain: B3 chain with E22V, S33Q, S99V, T103G
B6: bdSENP1^Muti (protein)
chain: B3 chain with E22K, S33H, S99E, T103R
B7: bdSENP1^MutG (protein)
chain: PFVPLTDEDEDNVRHALGGRKSSETLSVHEASHIVITREILQCLNDKEWLNDEVINLYLELLKERELREPNKFLKCHFFNTFFYKKLINGGYDYKSVRRWTTVKLGYNLIDCDKIFVPIHKDVHWCLAVINIKEKKFQYLDSLGYMDMKALRILAKYLVDEVKDKSGKQIDVHAWKQEGVQNLPLQENGWDCGMFMLKYIDFYSRDMELVFGQKHMSYFRRRTAKEILDLKAG
B8: Ulp1 from S. cerevisiae (protein)
chain: LVPELNEKDDDQVQKALASRENTQLMNRDNIEITVRDFKTLAPRRWLNDTIIEFFMKYIEKSTPNTVAFNSFFYTNLSERGYQGVRRWMKRKKTQIDKLDKIFTPINLNQSHWALGIIDLKKKTIGYVDSLSNGPNAMSFAILTDLQKYVMEESKHTIGEDFDLIHLDCPQQPNGYDCGIYVCMNTLYGSADAPLDFDYKDAIRMRRFIAHLILTDALK

What was measured:
[1] = biological target: scSUMO-MBP fusion protein
[2] = biological target: bdSUMO Mut8-MBP fusion protein
[3] = biological target: hsSUMO2-MBP fusion protein with the bdSUMO^Mut11 exchanges
[4] = biological target: bdSUMO Mut10-MBP fusion protein
[5] = biological target: bdSUMO-MBP fusion protein
[6] = biological target: scSUMO-MBP fusion protein with the bdSUMO^Mut11 exchanges
[7] = biological target: hsSUMO2-MBP fusion protein with the bdSUMO^Mut1 exchanges
[8] = biological target: bdSUMO^Mut1-MBP fusion protein
[9] = biological target: bdSUMO Mut14-MBP fusion protein
[10] = biological target: bdSUMO D67K-MBP fusion protein
[11] = biological target: bdSUMO Mut13-MBP fusion protein
[12] = biological target: scSUMO-MBP fusion protein with the bdSUMO^Mut1 exchanges
[13] = biological target: bdSUMO Mut11-MBP fusion protein
[14] = biological target: hsSUMO2-MBP fusion protein
[15] = biological target: bdSUMO Mut15-MBP fusion protein
[16] = biological target: bdSUMO Mut12-MBP fusion protein

Protein	cleavage of the SUMO fusion protein [1]	cleavage of the SUMO fusion protein [2]	cleavage of SUMO-MBP fusion, 1 h at 25 °C (FIG. 14) [3]	cleavage of the SUMO fusion protein [4]	cleavage of the SUMO fusion protein [5]	cleavage of SUMO-MBP fusion, 1 h at 25 °C (FIG. 14) [6]	cleavage of SUMO-MBP fusion, 1 h at 25 °C (FIG. 14) [7]	cleavage of the SUMO fusion protein [8]	cleavage of the SUMO fusion protein [9]	cleavage of the SUMO fusion protein [10]	cleavage of the SUMO fusion protein [11]	cleavage of SUMO-MBP fusion, 1 h at 25 °C (FIG. 14) [12]	cleavage of the SUMO fusion protein [13]	cleavage of the SUMO fusion protein [14]	cleavage of the SUMO fusion protein [15]	cleavage of the SUMO fusion protein [16]	protease concentration required to efficiently cleave 100 µM cognate substrate, 1 h at 0 °C [5]	protease concentration required to efficiently cleave 100 µM cognate substrate, 1 h at 0 °C [1]
B1	100 % cleavage	resistant	allowed cleavage resistance against Ulp1, SUMOstar protease, hsSENP2 and bdSENP1	resistant	< 50 % cleavage	allowed cleavage resistance against Ulp1, SUMOstar protease, hsSENP2 and bdSENP1	allowed cleavage resistance against Ulp1, SUMOstar protease, hsSENP2 and bdSENP1	resistant	resistant	resistant	resistant	allowed cleavage resistance against Ulp1, SUMOstar protease, hsSENP2 and bdSENP1	resistant	100 % cleavage	resistant	resistant	–	–
B2	resistant	< 75 % cleavage	–	100 % cleavage	< 25 % cleavage	–	–	100 % cleavage	100 % cleavage	< 75 % cleavage	100 % cleavage	–	100 % cleavage	resistant	100 % cleavage	100 % cleavage	–	–
B3	< 25 % cleavage	< 50 % cleavage	–	100 % cleavage	< 50 % cleavage	–	–	100 % cleavage	< 50 % cleavage	100 % cleavage	100 % cleavage	–	100 % cleavage	< 50 % cleavage	100 % cleavage	< 50 % cleavage	–	–
B4	< 50 % cleavage	< 25 % cleavage	allowed cleavage resistance against Ulp1, SUMOstar protease, hsSENP2 and bdSENP1	< 25 % cleavage	100 % cleavage	allowed cleavage resistance against Ulp1, SUMOstar protease, hsSENP2 and bdSENP1	allowed cleavage resistance against Ulp1, SUMOstar protease, hsSENP2 and bdSENP1	< 25 % cleavage	< 25 % cleavage	< 25 % cleavage	< 50 % cleavage	allowed cleavage resistance against Ulp1, SUMOstar protease, hsSENP2 and bdSENP1	< 25 % cleavage	< 50 % cleavage	< 25 % cleavage	< 25 % cleavage	Around 15-50 nM of these two proteases were required to efficiently cleave the cognate substrate	–
B5	resistant	< 75 % cleavage	–	100 % cleavage	< 50 % cleavage	–	–	100 % cleavage	100 % cleavage	100 % cleavage	100 % cleavage	–	100 % cleavage	resistant	100 % cleavage	100 % cleavage	–	–
B6	resistant	< 25 % cleavage	–	< 50 % cleavage	< 25 % cleavage	–	–	100 % cleavage	< 50 % cleavage	< 25 % cleavage	< 75 % cleavage	–	< 50 % cleavage	resistant	< 50 % cleavage	< 50 % cleavage	–	–
B7	< 25 % cleavage	< 25 % cleavage	–	100 % cleavage	< 50 % cleavage	–	–	100 % cleavage	< 50 % cleavage	< 75 % cleavage	< 75 % cleavage	–	< 75 % cleavage	100 % cleavage	< 75 % cleavage	< 50 % cleavage	–	–
B8	100 % cleavage	resistant	allowed cleavage resistance against Ulp1, SUMOstar protease, hsSENP2 and bdSENP1	resistant	100 % cleavage	allowed cleavage resistance against Ulp1, SUMOstar protease, hsSENP2 and bdSENP1	allowed cleavage resistance against Ulp1, SUMOstar protease, hsSENP2 and bdSENP1	resistant	resistant	resistant	resistant	allowed cleavage resistance against Ulp1, SUMOstar protease, hsSENP2 and bdSENP1	resistant	< 25 % cleavage	resistant	resistant	–	Around 15-50 nM of these two proteases were required to efficiently cleave the cognate substrate
